Measurements reported in patent US20150330991A1 (GWANGJU INSTITUTE OF SCIENCE AND TECHNOLOGY, published 2015).

What was measured:
[1] = target: T1, fibronectin extra domain B (ED-B) (UniProt P02751 1266-1356, biotinylated (biotin ED-B), site not stated); assay: SPR (BIAcore X), biotin-EDB on streptavidin SA chip, synthetic peptide as analyte; peptide 1
T1 construct: domain: ED-B; Biotin-EDB captured on a streptavidin SA chip (2,000 RU) for SPR and on streptavidin-coated wells for ELISA; also called biotin ED-B; biotin-EDB
Experimental: (§1) The bipodal peptide binder found from BPB2EDB, BPB3EDB, and BPB4EDB maturation libraries were synthesized (Anygen, Korea). The affinity measurement was conducted using BIAcore X (Biacore AB, Uppsala, Sweden). 2,000 RU of biotin-EDB was allowed to flow on the streptavidin SA chip (Biacore) for immobilization. PBS (pH 7.4) was used as a running buffer, and kinetics at different concentrations was measured under a flow rate of 30 μl per minute. The affinity was calculated using BlAevaluation software (Biacore AB, Uppsala, Sweden).

[2] = target: T1, fibronectin extra domain B (ED-B); assay: SPR (Biacore X), biotin-EDB on a streptavidin SA chip
Experimental: as §1

[3] = target: T2, vascular endothelial growth factor receptor 1 (VEGFR1) (UniProt P17948 27-756, limits assumed); assay: SPR (BIAcore X), from RU at 5 µM against the control's RU at 200 µM
T2 construct: Immobilised on a CM5 chip (7000 RU) for SPR; coated on plates for ELISA; also called VEGFR1 protein
Experimental: (§2) A VEGFR1-binding peptide optimized peptide and an existing peptide were synthesized (Anygen). The affinity measurement was conducted using BIAcore X (Biacore AB, Uppsala, Sweden). Here, 7000 RU of VEGFR1 was allowed to flow on the CM5 chip (Biacore) for immobilization. PBS (pH 7.4) was used as a running buffer, and the kinetics at different concentrations was measured under a flow rate of 30 μl per minute. The affinity was calculated using BlAevaluation software (Biacore AB, Uppsala, Sweden).
Optimized peptide VEGFR1_opti1 and control peptide GNQWFI were synthesized, and affinities thereof were measured using the SPR Biacore system.

streptavidin [4] = target: T3, streptavidin (UniProt P22629 37-163, limits assumed); assay: phage ELISA, wells coated with 5 µg/ml protein, anti-M13-HRP, absorbance at 450 nm
T3 construct: Immobilised on a CM5 chip (2000 RU) for SPR; coated on plates for ELISA; also called streptavidin protein
Experimental: In order to investigate specificities to streptavidin, of peptides (VEGFR1_opti1, VEGFR1_opti2, and VEGFR1_opti3) obtained through sequencing, recombinant phages expressing these peptides were used to investigate specificities to VEGFR1, VEGFR2, streptavidin, HSA, TNF, and VEGF. First, 5 μg/ml VEGFR1, VEGFR2, streptavidin, HSA, TNF, and VEGF were put in a 96-well ELISA plate (50 μl per well), and then allowed to stand at 4° C. overnight. The next day, all the wells were washed three times with 0.1% PBST, and blocked at room temperature for 2 hrs using 2% BSA diluted with PBS. Then, the whole solution was discarded, followed by washing three times with 0.1% PBST. 800 μl of recombinant phages of each of VEGFR1_opti1, VEGFR1_opti2, and VEGFR1_opti3 and 200 μl of 10% BSA were added thereto, and each 100 μl was dispensed into VEGFR1, VEGFR2, streptavidin, HSA, TNF, and VEGF wells, followed by standing at 27° C. for 1 hr. After washing five times with 0.1% PBST solution, the HRP-conjugated anti-M13 antibody (GE Healthcare) was diluted to 1:1,000, and then the reaction was performed at 27° C. for 1 hr. After washing with 0.1% PBST five times, 100 μl of the TMB solution was dispensed into each well to induce a colorimetric reaction, and then the reaction was stopped by adding 100 μl of 1 M HCl. The absorbance was measured at 450 nm.

[5] = target: T1, fibronectin extra domain B (ED-B); assay: SPR (BIAcore X), biotin-EDB on streptavidin SA chip, synthetic peptide as analyte; peptide 2
Experimental: as §1

[6] = target: T1, fibronectin extra domain B (ED-B); assay: SPR (BIAcore X), biotin-EDB on streptavidin SA chip
BSA = target: T4, BSA (bovine, UniProt P02769); assay: phage ELISA, wells coated with 5 µg/ml protein, anti-M13-HRP, absorbance at 450 nm
T4 construct: not further described; off-target control protein of the specificity ELISA
Experimental: In order to investigate specificities to streptavidin, of peptides (Strep_opti1 and Strep_opti2) obtained through sequencing, recombinant phages expressing these peptides were used to investigate specificities to streptavidin, BSA, ovalbumin, and VEGF. First, 5 μg/ml streptavidin, BSA, ovalbumin, and VEGF were put in a 96-well ELISA plate (50 μl per well), and then allowed to stand at 4° C. overnight. Next day, all the wells were washed three times with 0.1% PBST, and blocked at room temperature for 2 hrs using 2% BSA diluted with PBS. Then, the solution was discarded, followed by washing with 0.1% PBST three times. 800 μl of recombinant phages of each of Strep_opti1 and Strep_opti2 and 200 μl of 10% BSA were added thereto, and each 100 μl was dispensed into streptavidin, BSA, ovalbumin, and VEGF wells, followed by standing at 27° C. for 1 hr. After washing five times with 0.1% PBST solution, the HRP-conjugated anti-M13 antibody (GE Healthcare) was diluted to 1:1,000, and then the reaction was performed at 27° C. for 1 hr. After washing five times with 0.1% PBST, 100 μl of the TMB solution was dispensed into each well to induce a colorimetric reaction, and then the reaction was stopped by adding 100 μl of 1 M HCl. The absorbance was measured at 450 nm.

streptavidin [7] = target: T3, streptavidin; assay: SPR (BIAcore X), streptavidin immobilised on CM5 chip, synthetic peptide as analyte
Experimental: as §2, with “streptavidin-binding” for “VEGFR1-binding”, “2000” for “7000”, “streptavidin” for “VEGFR1”
(§3) Optimized peptide Strep_opti1 and control peptide […] were synthesized, and affinities thereof were measured using the SPR Biacore system.

streptavidin [8] = target: T3, streptavidin; assay: SPR (BIAcore X), ratio of KD values
Experimental: as §2, with “streptavidin-binding” for “VEGFR1-binding”, “2000” for “7000”, “streptavidin” for “VEGFR1”
as §3

T3 sequence (P22629 37-163 limits assumed): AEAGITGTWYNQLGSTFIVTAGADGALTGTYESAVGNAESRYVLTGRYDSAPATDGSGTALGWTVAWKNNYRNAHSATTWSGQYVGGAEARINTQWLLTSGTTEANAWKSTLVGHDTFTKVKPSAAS
T1 sequence (P02751 1266-1356 limits assumed): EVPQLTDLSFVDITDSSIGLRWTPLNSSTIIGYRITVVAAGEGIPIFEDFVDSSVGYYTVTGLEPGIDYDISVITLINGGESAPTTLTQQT
T4 sequence (P02769 25-607 limits assumed): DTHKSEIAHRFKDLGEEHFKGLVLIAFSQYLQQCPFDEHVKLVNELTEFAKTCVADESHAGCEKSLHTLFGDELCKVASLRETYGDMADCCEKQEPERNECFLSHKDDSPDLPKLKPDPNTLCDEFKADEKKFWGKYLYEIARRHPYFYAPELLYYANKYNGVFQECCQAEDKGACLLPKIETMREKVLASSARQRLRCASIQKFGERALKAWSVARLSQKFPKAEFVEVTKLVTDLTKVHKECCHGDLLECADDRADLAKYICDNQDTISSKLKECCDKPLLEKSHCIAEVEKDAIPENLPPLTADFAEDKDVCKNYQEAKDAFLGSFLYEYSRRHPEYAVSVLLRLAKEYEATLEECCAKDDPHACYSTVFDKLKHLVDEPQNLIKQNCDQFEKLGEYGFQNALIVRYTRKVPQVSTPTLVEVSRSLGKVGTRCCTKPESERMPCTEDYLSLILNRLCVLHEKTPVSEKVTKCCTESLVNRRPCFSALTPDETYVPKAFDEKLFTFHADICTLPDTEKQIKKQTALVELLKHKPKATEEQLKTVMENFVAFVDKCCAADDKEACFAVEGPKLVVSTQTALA
T2 sequence (P17948 27-756 limits assumed): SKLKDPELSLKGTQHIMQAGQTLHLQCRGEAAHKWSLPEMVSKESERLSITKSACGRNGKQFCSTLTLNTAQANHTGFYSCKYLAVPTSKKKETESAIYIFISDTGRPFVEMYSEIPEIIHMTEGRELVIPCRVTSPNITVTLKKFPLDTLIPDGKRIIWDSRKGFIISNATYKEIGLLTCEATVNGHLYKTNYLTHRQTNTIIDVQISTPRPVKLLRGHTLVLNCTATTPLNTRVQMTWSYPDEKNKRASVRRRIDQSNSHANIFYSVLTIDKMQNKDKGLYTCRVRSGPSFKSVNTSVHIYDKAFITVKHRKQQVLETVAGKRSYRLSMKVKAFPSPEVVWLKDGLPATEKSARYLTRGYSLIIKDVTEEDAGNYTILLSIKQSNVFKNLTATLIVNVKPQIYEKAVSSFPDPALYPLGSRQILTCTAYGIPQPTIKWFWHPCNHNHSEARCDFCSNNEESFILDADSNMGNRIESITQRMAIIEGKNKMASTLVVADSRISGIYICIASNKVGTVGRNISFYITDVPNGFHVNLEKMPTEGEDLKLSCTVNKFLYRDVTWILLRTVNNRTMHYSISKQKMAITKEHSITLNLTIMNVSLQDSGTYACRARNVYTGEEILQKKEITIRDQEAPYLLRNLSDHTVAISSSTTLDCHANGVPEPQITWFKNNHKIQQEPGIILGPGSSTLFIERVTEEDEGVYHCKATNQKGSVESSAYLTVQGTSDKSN

B1: peptide 1 (WGGPVRGSWTWENGKWTWKGIIRLEQ) (peptide)
peptide: WGGPVRGSWTWENGKWTWKGIIRLEQ
notes: Synthetic in SPR; on phage in the colony ELISA; also called BPB2 peptide 1
[1]
  Kd: 115 nM
[2]
  koff: 0.02 s⁻¹
  kon: 250000 M⁻¹ s⁻¹

B2: VEGFR1_opti1 (peptide)
peptide: GNQWFIGGGSWTWENGKWTWKGRIPKNR
notes: Synthetic peptide in SPR; also called optimized peptide VEGFR1_opti1; KPI-BPB VEGFR1_opti1
[3]
  fold increase in affinity compared with the control peptide: ~360 fold
Streptavidin [4]
  binding result: no binding

B3: peptide 2 (ADGRVRGSWTWENGKWTWKGIIRLEQ) (peptide)
peptide: ADGRVRGSWTWENGKWTWKGIIRLEQ
notes: Synthetic in SPR; on phage in the colony ELISA; also called BPB2 peptide 2
[2]
  koff: 0.01 s⁻¹
  kon: 370000 M⁻¹ s⁻¹
[5]
  Kd: 35 nM

B4: peptide 3 (CSSPIQGSWTWENGKWTWKGIIRLEQ) (peptide)
peptide: CSSPIQGSWTWENGKWTWKGIIRLEQ
notes: also called BPB2EDB; BPB2
[6]
  Kd: 16 nM
  koff: 0.00051 s⁻¹
  kon: 30000 M⁻¹ s⁻¹

B5: VEGFR1_opti3 (peptide)
peptide: GNQWFIGGGSWTWENGKWTWKGQQAIQP
notes: also called KPI-BPB VEGFR1_opti3
Streptavidin [4]
  binding result: no binding

B6: VEGFR1_opti2 (peptide)
peptide: GNQWFIGGGSWTWENGKWTWKGKLQNPM
notes: also called KPI-BPB VEGFR1_opti2
Streptavidin [4]
  binding result: no binding

B7: Strep_opti2 (peptide)
peptide: WSHPQFEKGGGSWTWENGKWTWKGTLIHPM
BSA
  binding result: no binding

B8: streptavidin-binding peptide WSHPQFEK (peptide)
peptide: WSHPQFEK
notes: Synthetic control peptide in SPR; also called known peptide
Streptavidin [7]
  Kd: 82000 nM

B9: Strep_opti1 (peptide)
peptide: WSHPQFEKGGGSWTWENGKWTWKGAHPQVR
notes: Synthetic peptide in SPR
BSA
  binding result: no binding
Streptavidin [7]
  Kd: 67 nM
Streptavidin [8]
  fold increase in affinity compared with control peptide WSHPQFEK: 1220 fold
